# Assay: label from the status in PepcDB records
row,Sequence,protein production
1,SEDINRNPLLPTKEDEKMDGVIYGAYLPNLEKSVIPIGTASESTEPVNRYQIGVNLAGDAWAGYMSPRDNKFNGSKNFTNYFMYENWVNYVYSFMVTDVYSPWMQIKRISQDEGTRNDEIYALAQIIKIAALHRTTDMFGPIPYSQVGKGSFKVAYDSQESVYRSFLKELEEAVQTLDDYSNKSKEVLPAFDIVYNGDVNKWMRFANSLMLRLAIRVRFADAGLAKEYAEKAVKHPAGLINSKELAAQMGKGAGLQMKNPLKVINEEYNDTRMGATIYSYLAGYNDARAAVYFVKNNGFKAVRCGIAKSGDAYNGFTRPNVHEDDPLYWMKASEVCFLKAEGALAGFDMGGSAGDFYNAGIRMSFSENGLDNSSAETYLKDSTRKPANYTDTSNGELSANAPSSITIRWENGATEEEKLERIITQKYLAIFPNGQEAWTEWRRTGYPRQIVVAENKTNSAVLIGNGYDLGGVRRLPYPRTEYEQNGENLHNAISQYLGGVDNAATKVWWDKKSK,not failed
2,SEPPKMNPVVEPLSWMLGTWLSDPPGAGTYPTLQPFQYLEEVHISHVGQPMLNFSFNSFHPDTRKPMHRECGFIRLKPDTNKVAFVSAQNTGVVEVEEGEVNGQELCIASHSIARISFAKEPHVEQITRKFRLNSEGKLEQTVSMATTTQPMTQHLHVTYKKVTP,not failed
3,SERRYKQLFDSGRDGIFVVQMDEEEGVAQIVEANWSAHEMFGYSQGAFEELAFASLVDKGEREGVERLLKELPLKGGALIESHFVLLEHRSIPIELSIQSFLLEEKRTLYVSARDIT,failed
4,SERTELLKPRTLADLIRILHELFAGDEVNVEEVQAVLEAYESNPAEWALYAKFDQYRYTRNLVDQGNGKFNLMILCWGEGHGSSIHDHTDSHCFLKLLQGNLKETLFDWPDKKSNEMIKKSERTLRENQCAYINDSIGLHRVENVSHTEPAVSLHLYSPPFDTCHAFDQRTGHKNKVTMTFHSKFGIRTPFTTSGSLENN,failed
5,SEVIRSQKRTVSNDVVSTPTLPLYLTAPHMEVRLEEFELFAIDRLRVLKGVSDGLARARNPNEMDDLVETLWKEHMRLSDVSEMINKDIISHFVLRLVYCRSDELKKWFLSMETAPFRHRFRLKKIEEQRAIVGEFGLPYKAVIGAELESLKERLGLVARSHGQISSDVENIYYKVPFEEVPDLVASRRVLLQKGFAFVAGTQLVSLVVTQFRSHLSKALILTNRKWTTTIREREKDRLTPIVEALSTSYLGPDYSQSNEYADISLKDIDQVSKSSFPLCMRHLFEKLREDHHLKHGGRMQLGLFLKGVGLKLDDALAFWREEFTKKVGSERFDKEYAYAIRHNYGKEGKRTDYTPYACSKIITSAPGAGDHHGCPYRHFSEDNLKAALSRMGLSSRGMEDVMDKVRNRHYQLACTLTFEAVYGTSCDTGINHPNQYFEESQKILKSKTPAAPV,not failed
6,SFEIGCELEAQRELRAKQTLVGQVIDEDLMSIVYQPVWDIEAMQPLGFECLARFSPLPLRSPDKWFADAAEVGMGVELELHAIRKALQAIGRFPAPIDLSVNASAATILGGDLARLFDGVPLDRLIVEITEHSSVGNYDAILDVLRPLRQRGLRLAVDDAGAGYSSLHHILNMQPDFIKLDIGLTQNIDLDPARKALARALVGFARDTGSRIVAEGVERQSELDALRSIGVKKVQGYLLGRP,failed
7,SFQTVPSTAETSAVLLQDSGWDALAQRLALIETAEHSIDIQYYIWNSDASGHYLASRLLAAADRGVKVRVMLDDINLNEREDLLVALNAHPHVEIRVFNPIPTRRGVTKWVNFLGDFSRLNRRMHNKSFTVDGVFSVVGGRNIGDEYFDLSNEINFRDRDVLVRGSVVYDIQTSFIEYWDSRWSYPVDLLAKEASQEPLLQKQPVLDEIDAPVYKNYPA,failed
8,SFRTTKEEVVEKAKAFISAHYTEELNLSVIASQLYVNPFYLRRIFKEETELSPSQYLLKKRIEAALALLVNQEETITDIAFKVGFKSPAHFSTVFRHMIGLPPQKYRES,failed
9,SFSAPIEDLQVRIAFLDELVEQLNTQLALQTQEIADLKKQMQLLYQRVEASDLSEGIAPFDPNTNKPPHY,failed
10,SGAAAAEADRTLFVGNLETKVTEELLFELFHQAGPVIKVKIPKDKDGKPKQFAFVNFKHEVSVPYAMNLLNGIRLYGRPIKIQFRSGSSHAPQDVSLSYPQHHVGNSSPTSTSPSRYERTMDNMTSSAQIIQRSFSSPENFQRQAVMNSALRQMSYGGKFGSSPLDQSGFSPSVQSHSHSFNQSSSSQWRQGTPSSQRKVRMNSYPYLADRHYSREQRYTDHGSDHHYRGKRDDFFYEDRNHDDWSHDYDNRRDSSRDGKWRSSRH,not failed
